Assay results published in patent publication US20220072144A1 (published 2022).

Key:
Flag-HER3 (S846I) = molecular target: T1, Flag-HER3 (S846I) (human, UniProt P21860 1-1342); assay: flow cytometry on HER3-stably expressing MDA-MB-231 cells without HER2 overexpression, 0.1 to 100 nM
T1 construct: The entry already carries the mutation; Stably expressed in MDA-MB-231 cells, with or without HER2 overexpression; also called mutant-type HER3 (S846I)
Procedure: (§1) Wild-type and various kinds of mutant-type HER3-introduced MDA-MB-231 cells were cultured with RPMI1640 medium (available from Thermo Fisher […] K.K.) containing 10% FBS (available from Hyclone Laboratories, Inc). The cells were separated from the culture plate with TrypLE® Express Enzyme (available from Thermo Fisher […] K.K.), to measure the number of living cells by trypan blue treatment. The same number of living cells were added to a 96-well U-bottom plate, then the cells were precipitated by centrifugation, and the medium was replaced with Stain Buffer (available from Becton, Dickinson and Company). […] The cells were allowed to react on ice for 60 minutes and then washed with Stain Buffer. Further, 100 μL of Stain Buffer or a secondary antibody (Goat anti-Human IgG (H+L) Cross-Adsorbed Secondary Antibody, Alexa Fluor647, Thermo Fisher […] K.K., #A-21445) diluted to 10 μg/mL was added thereto, and the cells were suspended therein. After the cells were allowed to react in the dark on ice for 60 minutes and then washed with Stain Buffer. After the cells were suspended in 100 μL of Stain Buffer, an equal amount of 4% paraformaldehyde phosphate buffer (Wako Pure Chemical Industries, Ltd.) was added thereto, and the mixture was reacted in the dark on ice for 20 minutes. After washing with a Stain Buffer, fluorescence signals were measured using Attune NxT Flow Cytometer (available from Thermo Fisher […] K.K.), and the measurement results were analyzed using FlowJo software (Version 10.5.0, available from Becton, Dickinson and Company).

Flag-HER3 (E928G) = molecular target: T2, Flag-HER3 (E928G) (human, UniProt P21860 1-1342); assay: as above
T2 construct: The entry already carries the mutation; Stably expressed in MDA-MB-231 cells, with or without HER2 overexpression; also called mutant-type HER3 (E928G)
Procedure: as §1

Flag-HER3 (WT) = molecular target: T3, Flag-HER3 (WT) (human, UniProt P21860 1-1342); assay: as above
T3 construct: Flag-tagged full-length HER3 stably expressed in MDA-MB-231 cells, with or without HER2 overexpression; also called wild-type HER3
Procedure: as §1

Flag-HER3 (Q809R) = molecular target: T4, Flag-HER3 (Q809R) (human, UniProt P21860 1-1342); assay: flow cytometry on HER2-overexpressing and HER3-stably expressing MDA-MB-231 cells, same method as Example 3
T4 construct: The entry already carries the mutation; Stably expressed in HER2-overexpressing MDA-MB-231 cells; also called mutant-type HER3 (Q809R)
Procedure: as §1, with “After the cells were suspended in 100 μL of Stain Buffer, an equal amount of 4% paraformaldehyde phosphate buffer (Wako Pure Chemical Industries, Ltd.) was added thereto, and the mixture was reacted in the dark on ice for 20 minutes.” left out

Flag-HER3 (P262H) = molecular target: T5, Flag-HER3 (P262H) (human, UniProt P21860 1-1342); assay: flow cytometry on HER2-overexpressing and HER3-stably expressing MDA-MB-231 cells, 0.1 to 100 nM
T5 construct: The entry already carries the mutation; Stably expressed in MDA-MB-231 cells, with or without HER2 overexpression; also called mutant-type HER3 (P262H)
Procedure: as §1

Flag-HER3 (D297Y) = molecular target: T6, Flag-HER3 (D297Y) (human, UniProt P21860 1-1342); assay: as above
T6 construct: The entry already carries the mutation; Stably expressed in MDA-MB-231 cells, with or without HER2 overexpression; also called mutant-type HER3 (D297Y)
Procedure: as §1

Flag-HER3 (V104L) = molecular target: T7, Flag-HER3 (V104L) (human, UniProt P21860 1-1342); assay: as above
T7 construct: The entry already carries the mutation; Stably expressed in MDA-MB-231 cells, with or without HER2 overexpression; also called mutant-type HER3 (V104L)
Procedure: as §1

Flag-HER3 (V104M) = molecular target: T8, Flag-HER3 (V104M) (human, UniProt P21860 1-1342); assay: as above
T8 construct: The entry already carries the mutation; Stably expressed in MDA-MB-231 cells, with or without HER2 overexpression; also called mutant-type HER3 (V104M)
Procedure: as §1

Flag-HER3 (T355I) = molecular target: T9, Flag-HER3 (T355I) (human, UniProt P21860 1-1342); assay: as above
T9 construct: The entry already carries the mutation; Stably expressed in MDA-MB-231 cells, with or without HER2 overexpression; also called mutant-type HER3 (T355I)
Procedure: as §1

Flag-HER3 (G284R) = molecular target: T10, Flag-HER3 (G284R) (human, UniProt P21860 1-1342); assay: as above
T10 construct: The entry already carries the mutation; Stably expressed in MDA-MB-231 cells, with or without HER2 overexpression; also called mutant-type HER3 (G284R)
Procedure: as §1

Flag-HER3 (G325R) = molecular target: T11, Flag-HER3 (G325R) (human, UniProt P21860 1-1342); assay: as above
T11 construct: The entry already carries the mutation; Stably expressed in MDA-MB-231 cells, with or without HER2 overexpression; also called mutant-type HER3 (G325R)
Procedure: as §1

Flag-HER3 (A232V) = molecular target: T12, Flag-HER3 (A232V) (human, UniProt P21860 1-1342); assay: as above
T12 construct: The entry already carries the mutation; Stably expressed in MDA-MB-231 cells, with or without HER2 overexpression; also called mutant-type HER3 (A232V)
Procedure: as §1

Measured: binding result

B1: HER3-ADC (1) (antibody, human IgG1, kappa, V domains shown)
VH: QVQLQQWGAGLLKPSETLSLTCAVYGGSFSGYYWSWIRQPPGKGLEWIGEINHSGSTNYNPSLKSRVTISVETSKNQFSLKLSSVTAADTAVYYCARDKWTWYFDLWGRGTLVTVSS
VL: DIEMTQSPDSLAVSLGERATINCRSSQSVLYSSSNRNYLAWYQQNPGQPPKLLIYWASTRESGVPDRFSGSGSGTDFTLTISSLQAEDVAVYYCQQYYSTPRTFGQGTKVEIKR
modifications: drug-linker (exatecan derivative) conjugated via a thioether bond to cysteine thiols formed at interchain disulfide sites; drug-linker (exatecan derivative) conjugated via a thioether bond to cysteine thiols formed at interchain disulfide sites; average number of conjugated drug molecules per antibody molecule in the range of 7 to 8
notes: also called anti-HER3 antibody-drug conjugate; conjugate of HER3-Ab (1)
binds: all assays above
